These results are taken from US20120027773A1 (AVEO PHARMACEUTICALS, published 2012).

The target of test [1] is T1, recombinant human RON SEMA and PSI domains (human, UniProt Q04912 25-571).
T1 construct: domain: SEMA+PSI; Commercial protein (R&D Systems); also called rhRON SEMA+PSI; hRON SEMA+PSI
The test is described as follows: ECL competition, MSP binding to coated hRON SEMA+PSI; competitor MSP; average. On the procedure: (§1) The biochemical neutralization assay measures inhibition of MSP binding to hRON by antibodies in hybridoma supernatants, using electrochemiluminescence (ECL). MA2400 96-well high binding plates (Meso Scale Discovery) were coated with 25 μl of 0.42 μg/mL hRON SEMA+PSI (an N-terminal portion of the ECD of hRON; R&D Systems) in PBS for one hour at room temperature with agitation. The plates were washed four times with PBS+0.1% Tween-20 (PBST), and blocked with 150 μl of charcoal-stripped fetal bovine serum (FBS) (Gibco). The hybridoma supernatant were added and incubated for 45 minutes at room temperature. After incubation, 5 μl of MSP (3 μg/mL) in charcoal stripped FBS was added to each well, and incubated for 45 minutes. The plate was washed four times with PBST, and 25 μl of 1 μg/mL biotinylated anti-MSP antibody (R&D Systems) was added to the plates for one hour at room temperature with agitation. The plates were washed four times with PBST, and incubated with 25 μl of 1 μg/mL ST-streptavidin (Meso Scale Discovery) for one hour at room temperature with agitation. The plates were washed four times with PBST, and 150 μl read buffer (Meso Scale Discovery) was added to each well before the plates were analyzed on a Sector Imager 2400 (Meso Scale Discovery) instrument. Antibodies 07F01, 18H09 and 29B06 each blocked MSP binding to hRON SEMA+PSI in this neutralization assay.
(§2) Antibodies 07F01, 12B11, 17F06, 18H09, and 29B06 were tested for inhibition of MSP binding to hRON SEMA+PSI, as measured by electrochemiluminescence (ECL) assay as described in Example 3. The antibodies (concentration range: 0.006-10 μg/mL) were incubated for 45 minutes at room temperature.

Test [2] deals with T2, human wild-type RON (cell surface) (human, UniProt Q04912 25-1400). The test is described as follows: cell-based or functional assay.
The target in test [3] is T1, recombinant human RON SEMA and PSI …. Kind of test: ECL competition, MSP binding to coated hRON SEMA+PSI; competitor MSP; average n=3. On the procedure: as §1, §2
Test [4] addresses T2, human wild-type RON (cell surface). The test is described as follows: FACS, 10 ug/ml antibody, PC3 cells, 4 C. On the procedure: Binding to cell surface wild-type RON and delta 160 RON at 4° C. was determined for antibodies 07F01, 12B11, 17F06, 18H09, and 29B06, using FACS. Cells expressing wild-type RON (PC3), and cells expressing delta 160 RON (HT-29), were harvested using cell dissociation buffer (Invitrogen), washed twice with FACS buffer (0.5% BSA PBS) and treated with CytoQ Antibody diluent and FC receptor block (Innovex). Purified antibodies were diluted at a concentration of 10 μg/ml, in FACS buffer. Cells were incubated with 100 μl of antibody mix for one hour, washed with FACS buffer three times, and incubated for 45 minutes with goat anti-mouse PE conjugated antibody (Jackson Immunoresearch Laboratories). Cells were washed three times with FACS buffer, resuspended in 300 μl of FACS buffer and analyzed using a Beckman Coulter Cytomics FC 500 FACS instrument.
In general terms: Flow cytometry measures light scatter and fluorescence of single cells or particles in a stream.

B1: 07F01 (antibody, mouse IgG1, kappa, V domains shown)
VH: EVKLLESGGGLVQPGGSLKLSCAASGFDFSRHWMSWVRLAPGKGLEWIAEINPDSRTINYTPSLKEKFIISRDNAKNSLFLQMNRVRSEDTALYYCARRVRIHYYGAMDCWGQGTSVTVSS
VL: DIVLTQSQKIVSTSVGARVSVTCKASQNVGSSLVWYQQKPGQSPKTLIYSASFRYSGVPDRFTGSGSGTDFTLTISNVQSEDLADYFCQQYNNYPLTFGAGTKLELKR
notes: Murine hybridoma monoclonal, IgG1/kappa; also called mu07F01; antibody 07F01
B1: the “Maximum Neutralization (%)” value in test [1] was 88.3%. For the same molecule, the “Mean IC50 (nM), inhibition of MSP-dependent ERK phosphorylation, T47D cells” value in test [2] came to 0.07 nM. Further, in test [3], the IC50 (as a rule, the concentration at which inhibition is half-maximal) is 0.26 nM. Further, the “PC3 % cell surface binding” value in test [4] was 99.3%.

B2: 29B06 (antibody, mouse IgG1, kappa)
heavy: EVQLQESGPSLVKPSQTLSLTCSVTGDSITSGYWNWIRKFPGNKLEYMGYISYSGKTYYNPSLKSRISITRDTSKNHYYLQLISVTAEDTATYYCARSKYDYAMDYWGQGTSVTVSSAKTTPPSVYPLAPGSAAQTNSMVTLGCLVKGYFPEPVTVTWNSGSLSSGVHTFPAVLQSDLYTLSSSVTVPSSTWPSETVTCNVAHPASSTKVDKKIVPRDCGCKPCICTVPEVSSVFIFPPKPKDVLTITLTPKVTCVVVDISKDDPEVQFSWFVDDVEVHTAQTQPREEQFNSTFRSVSELPIMHQDWLNGKEFKCRVNSAAFPAPIEKTISKTKGRPKAPQVYTIPPPKEQMAKDKVSLTCMITDFFPEDITVEWQWNGQPAENYKNTQPIMDTDGSYFVYSKLNVQKSNWEAGNTFTCSVLHEGLHNHHTEKSLSHSPGK
light: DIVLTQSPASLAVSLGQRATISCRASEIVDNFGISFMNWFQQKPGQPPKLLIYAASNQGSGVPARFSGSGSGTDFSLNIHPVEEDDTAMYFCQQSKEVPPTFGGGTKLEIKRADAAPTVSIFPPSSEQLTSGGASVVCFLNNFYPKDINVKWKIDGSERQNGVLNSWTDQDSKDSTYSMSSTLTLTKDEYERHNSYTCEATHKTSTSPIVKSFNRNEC
notes: Murine hybridoma monoclonal, IgG1/kappa; also called mu29B06; antibody 29B06
Regarding B2, the “Maximum Neutralization (%)” value in test [1] was determined as 87.6%. Also, the “Mean IC50 (nM), inhibition of MSP-dependent ERK phosphorylation, T47D cells” value in test [2] is 0.44 nM. The IC50 in test [3] was 1.11 nM. In addition, the “PC3 % cell surface binding” value in test [4] came to 99.1%.
